Data published in publication PMC4823042, “Transcription factor LSF (TFCP2) inhibits melanoma growth”.

T1: LSF (Late SV40 factor 3) (human, UniProt Q12800 1-502)
T1 sequence: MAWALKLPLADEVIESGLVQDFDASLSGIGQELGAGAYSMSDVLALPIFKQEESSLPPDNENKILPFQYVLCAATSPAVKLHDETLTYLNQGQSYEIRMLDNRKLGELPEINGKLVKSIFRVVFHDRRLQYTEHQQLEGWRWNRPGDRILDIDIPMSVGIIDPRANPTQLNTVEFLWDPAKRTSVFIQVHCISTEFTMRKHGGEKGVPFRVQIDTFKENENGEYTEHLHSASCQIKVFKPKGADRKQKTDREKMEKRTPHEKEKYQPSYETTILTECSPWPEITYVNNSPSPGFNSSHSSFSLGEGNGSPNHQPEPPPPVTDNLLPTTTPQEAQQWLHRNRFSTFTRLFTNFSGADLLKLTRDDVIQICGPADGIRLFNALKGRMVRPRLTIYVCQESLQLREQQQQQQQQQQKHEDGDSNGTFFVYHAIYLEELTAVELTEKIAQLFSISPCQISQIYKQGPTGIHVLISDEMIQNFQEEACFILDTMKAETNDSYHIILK


Target: T1, LSF (Late SV40 factor 3)
Assay: EMSA; LightShift Chemiluminescent EMSA kit per manufacturer; 7% PAGE in 0.5x TBE; binding buffer, pH and temperature not stated
Conditions: protein: ivt, tags: FLAG, chain copies: 4, label: biotin end label
[1] = 5' overhangs 4 nt on both strands

Binder | binding result [1] | binding result (5' overhangs 3 nt (top) and 4 nt (bottom))
p21 promoter #4 (dsDNA) DNA 1: GCCTCCTTGAGGCGGGCCCGGGCGGGGCGGT DNA 2: TACAACCGCCCCGCCCGGGCCCGCCTCAAGG | binds | –
p21 promoter #4 mutant (dsDNA) DNA 1: GCCTCCTTGAGTAGGTCCCGGTAGGTGCGGT DNA 2: TACAACCGCACCTACCGGGACCTACTCAAGG | no binding | –
p21 promoter #3 (dsDNA) DNA 1: GCTGGCTCGGCGCTGGGCAGCCAGGAGCCT DNA 2: GCCCAGGCTCCTGGCTGCCCAGCGCCGAGCC | – | binds
p21 promoter #1 mutant (dsDNA) DNA 1: GCACGCGAGGTTACGTGACCGTATGTCCTGC DNA 2: TCCAGCAGGACATACGGTCACGTAACCTCGC | no binding | –
p21 promoter #2 (dsDNA) DNA 1: GCTGGAACTCGGCCAGGCTCAGCTGGCTCGG DNA 2: AGCGCCGAGCCAGCTGAGCCTGGCCGAGTTC | binds | –
p21 promoter #1 (dsDNA) DNA 1: GCACGCGAGGTTCCGGGACCGGCTGGCCTGC DNA 2: TCCAGCAGGCCAGCCGGTCCCGGAACCTCGC | binds | –
